Assay results from paper PMC3173232 (The Journal of Biological Chemistry, 2011).

B1: XRCC4(1–140) (domain or fragment)
chain: MERKISRIHLVSEPSITHFLQVSWEKTLESGFVITLTDGHSAWTGTVSESEISQEADDMAMEKGKYVGELRKALLSGAGPADVYTFNFSKESCYFFFEKNLKDVSFRLGSFNLEKVENPAEVIRELICYCLDTIAENQAK
B2: XLF(1–224) (domain or fragment)
chain: MEELEQGLLMQPWAWLQLAENSLLAKVFITKQGYALLVSDLQQVWHEQVDTSVVSQRAKELNKRLTAPPAAFLCHLDNLLRPLLKDAAHPSEATFSCDCVADALILRVRSELSGLPFYWNFHCMLASPSLVSQHLIRPLMGMSLALQCQVRELATLLHMKDLEIQDYQESGATLIRDRLKTEPFEENSFLEQFMIEKLPEACSIGDGKPFVMNLQDLYMAVTTQ

Key:
[1] = target: full-length XLF (XLF^FL) (human, UniProt Q9H9Q4 1-299); experiment: SEC
[2] = target: the molecule itself; experiment: crystal structure

Row | Binder | binding result [1] | binding result [2]
1 | B1 | binds | 
2 | B2 |  | binds
